Molecular target: T1, LgBiT (C-terminal GTTSA linker and Strep-tag (WSHPQFEK) omitted)
T1 chain: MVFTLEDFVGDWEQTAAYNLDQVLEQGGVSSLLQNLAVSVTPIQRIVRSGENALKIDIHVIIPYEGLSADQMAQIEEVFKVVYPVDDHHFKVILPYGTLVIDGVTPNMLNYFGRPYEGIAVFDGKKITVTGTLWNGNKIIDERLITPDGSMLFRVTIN
Assay: split reporter (BiFC, NanoBiT); competition: DarkBiT101 titrated to 75 pM SmBiT86 and 0.75 nM LgBiT, loss of luminescence; 1x PBS, 0.02% Tween20, 4 °C for 16 h before addition of 1:1000 NanoGlo
Conditions: both partners purified

- Ki: 2.6 ± 0.4 µM
Binder: VTGYALFEKES [DarkBiT101 peptide]
